B1: Protein deacetylase HDAC6 (Homo sapiens), Q9UBN7 (parent)
chain: MTSTGQDSTTTRQRRSRQNPQSPPQDSSVTSKRNIKKGAVPRSIPNLAEVKKKGKMKKLGQAMEEDLIVGLQGMDLNLEAEALAGTGLVLDEQLNEFHCLWDDSFPEGPERLHAIKEQLIQEGLLDRCVSFQARFAEKEELMLVHSLEYIDLMETTQYMNEGELRVLADTYDSVYLHPNSYSCACLASGSVLRLVDAVLGAEIRNGMAIIRPPGHHAQHSLMDGYCMFNHVAVAARYAQQKHRIRRVLIVDWDVHHGQGTQFTFDQDPSVLYFSIHRYEQGRFWPHLKASNWSTTGFGQGQGYTINVPWNQVGMRDADYIAAFLHVLLPVALEFQPQLVLVAAGFDALQGDPKGEMAATPAGFAQLTHLLMGLAGGKLILSLEGGYNLRALAEGVSASLHTLLGDPCPMLESPGAPCRSAQASVSCALEALEPFWEVLVRSTETVERDNMEEDNVEESEEEGPWEPPVLPILTWPVLQSRTGLVYDQNMMNHCNLWDSHHPEVPQRILRIMCRLEELGLAGRCLTLTPRPATEAELLTCHSAEYVGHLRATEKMKTRELHRESSNFDSIYICPSTFACAQLATGAACRLVEAVLSGEVLNGAAVVRPPGHHAEQDAACGFCFFNSVAVAARHAQTISGHALRILIVDWDVHHGNGTQHMFEDDPSVLYVSLHRYDHGTFFPMGDEGASSQIGRAAGTGFTVNVAWNGPRMGDADYLAAWHRLVLPIAYEFNPELVLVSAGFDAARGDPLGGCQVSPEGYAHLTHLLMGLASGRIILILEGGYNLTSISESMAACTRSLLGDPPPLLTLPRPPLSGALASITETIQVHRRYWRSLRVMKVEDREGPSSSKLVTKKAPQPAKPRLAERMTTREKKVLEAGMGKVTSASFGEESTPGQTNSETAVVALTQDQPSEAATGGATLAQTISEAAIGGAMLGQTTSEEAVGGATPDQTTSEETVGGAILDQTTSEDAVGGATLGQTTSEEAVGGATLAQTTSEAAMEGATLDQTTSEEAPGGTELIQTPLASSTDHQTPPTSPVQGTTPQISPSTLIGSLRTLELGSESQGASESQAPGEENLLGEAAGGQDMADSMLMQGSRGLTDQAIFYAVTPLPWCPHLVAVCPIPAAGLDVTQPCGDCGTIQENWVCLSCYQVYCGRYINGHMLQHHGNSGHPLVLSYIDLSAWCYYCQAYVHHQALLDVKNIAHQNKFGEDMPHPH
partner: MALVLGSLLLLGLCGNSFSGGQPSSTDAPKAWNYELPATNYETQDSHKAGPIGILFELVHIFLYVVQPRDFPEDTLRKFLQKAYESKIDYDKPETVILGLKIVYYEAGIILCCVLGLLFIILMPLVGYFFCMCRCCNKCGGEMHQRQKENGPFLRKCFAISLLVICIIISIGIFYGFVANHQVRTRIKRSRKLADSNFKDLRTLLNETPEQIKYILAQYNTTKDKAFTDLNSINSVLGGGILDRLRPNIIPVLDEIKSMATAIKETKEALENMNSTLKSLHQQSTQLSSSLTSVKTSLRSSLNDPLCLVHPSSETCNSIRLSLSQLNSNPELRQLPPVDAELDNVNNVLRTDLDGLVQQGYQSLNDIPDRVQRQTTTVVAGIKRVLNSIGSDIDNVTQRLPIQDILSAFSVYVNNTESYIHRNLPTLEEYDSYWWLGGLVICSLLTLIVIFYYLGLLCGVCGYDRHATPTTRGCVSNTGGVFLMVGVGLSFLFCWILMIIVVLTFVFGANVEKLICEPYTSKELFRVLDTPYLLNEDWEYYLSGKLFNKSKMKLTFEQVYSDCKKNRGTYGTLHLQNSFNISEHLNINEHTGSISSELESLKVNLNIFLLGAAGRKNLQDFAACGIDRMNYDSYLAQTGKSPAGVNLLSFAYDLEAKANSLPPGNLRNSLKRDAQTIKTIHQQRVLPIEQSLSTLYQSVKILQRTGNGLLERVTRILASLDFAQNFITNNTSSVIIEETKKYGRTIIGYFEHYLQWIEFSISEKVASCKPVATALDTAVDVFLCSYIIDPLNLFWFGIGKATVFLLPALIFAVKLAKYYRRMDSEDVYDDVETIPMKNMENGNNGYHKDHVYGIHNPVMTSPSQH

Variants of: B1
Details: with prom1_human PROM1, O43490

| effect of a mutation on the interaction | Variant |
| --- | --- |
| with no effect | H216A;H611A |
| disrupting interaction strength | S568E |
| with no effect | S568A |
| disrupting interaction strength | Y570E |
| with no effect | Y570A |
